Experimental data published in article PMC3951675 (Journal of molecular biology, 2013).

B1: regulatory domain of tyrosine hydroxylase lacking the first 64 residues (RDTyrH_(65-159)) (domain or fragment, rat, UniProt P04177 65-159, looked up)
chain: PGNPLEAVVFEERDGNAVLNLLFSLRGTKPSSLSRAVKVFETFEAKIHHLETRPAQRPLAGSPHLEYFVRFEVPSGDLAALLSSVRRVSDDVRSA
B2: isolated regulatory domain of tyrosine hydroxylase (RDTyrH, residues 1-159) (domain or fragment, rat, UniProt P04177 1-159, looked up)
chain: MPTPSAPSPQPKGFRRAVSEQDAKQAEAVTSPRFIGRRQSLIEDARKEREAAAAAAAAAVASSEPGNPLEAVVFEERDGNAVLNLLFSLRGTKPSSLSRAVKVFETFEAKIHHLETRPAQRPLAGSPHLEYFVRFEVPSGDLAALLSSVRRVSDDVRSA

Experiments:
[1] = biological target: the molecule itself; experiment: SEC
[2] = biological target: the molecule itself; experiment: AUC

| Protein | stoichiometry N [1] | stoichiometry N [2] |
| --- | --- | --- |
| B1 | 2 |  |
| B2 |  | 2 |
